For series [1], the target named is Salpingoeca rosetta caveolin (F2U793) (Salpingoeca rosetta). The series is described as follows: cryo-EM structure.
The series “cryo-EM structure” concerns the molecule itself. The series is described as follows: cryo-EM structure.

As to “Salpingoeca rosetta caveolin (F2U793) (natural protein)”, in series [1], the stoichiometry N (commonly the number of molecules, sites or subunits per partner or assembly) was 11.

B1: Strongylocentrotus purpuratus caveolin (A0A7M7T4C2) (natural protein, UniProt A0A7M7T4C2 1-159, looked up)
chain: MELIHPENGPSGTVQVPLIQGVDQSDTEDVYRLSPHVTTGFADTFKESNDIMGFSFMEKVNGAIYKYTHFAFYAVLNLLLAPFIAFSFGLSFAVMHFAVVWFVQPIMKLYYVWLRVFNLAYEPALRLVCDPIHRSIALILSGIKGQFKMNSSDVKTSQV
As to B1, the “stoichiometry N” value in “cryo-EM structure” was found to be 11.
